experiment: soluble fraction after stress (log2 fold change); higher = more stays soluble; pooled small domains, quantitative proteomics; settings: stress: 50 degC
Method in brief: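 Each library was heated to 50°C as a stress step. The libraries, made up of small protein domains, were pooled and analysed at high throughput by quantitative proteomics. The reported value is the base-two logarithm of the fold change in each protein's soluble amount after stress, taken as a measure of aggregation propensity. The higher the value, the more protein stays in solution.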

“HMGEFVQLKNRTGSVIEAKILNYQNGKVKLQRKDGVIFVVPISIFDRMSSSIIENKAKEMDSF” and “HMIEQEQAFLEQVLKKYSQEELVLTVGSRTLVKYSAGQLERLLEHYPHVRLASSPVNGEAGFLLSRG” are within 0.2 log units of each other in “soluble fraction (log2)” value: 0.00542 for the first, -0.0933 for the second.

Compared with “HMEAKTSNPDYHARLGLTEGEGNDSALGVSVKAAEGGFGLLFGNKVGSDQLVRFANEDQVWLVNRALS”, “HMQMEISQRIKLERQTLKWTQEELADKIFVSKRTISNWETGRTVPDIESVLRLAKVFHVSLEDLLL” is lower in “soluble fraction (log2)” value: 0.0188 for the first, -4.57 for the second.

Compared with “HMDGSEYAGTVRLGDGTLQPVPRFETSNSETPKYLYLVMDVTHDPPVYILEHESAELKSVLGGLVLIGSYS”, “HMTVNLPPKQKAAILLMSLPPEVSAQLFKELGPDEVHAITLEISKLPPISPDVRAQVIDEFLHSS” is lower in “soluble fraction (log2)” value: 0.0759 for the first, -0.152 for the second.

“HMDGTVRGKTTFQELLDWGVPQERIEAVLGGPIPAPGVVIKDYVTAQGKEFSAVRDALQAEVDAVLK” and “HMSTPENLGGRNTAKARISWLENGVKQELESDFPAAEVVKLSSRFGGEVPELTVIRPSLEDIYLKMIG” are within 0.2 log units of each other in “soluble fraction (log2)” value: 0.232 for the first, 0.0409 for the second.

Compared with “HMIKSEERIQNIKEYILEFQFTYHRTPTMAQIAEAVGTVKSNVYKYLSEMEERGILTRNKREIEINDTIQ”, “HMTIAFPSNDVDAVVGYFESRGFDRTASISTATVILQQAKIDGVKVFELIDTLQGMDKVQLSYIVTEILN” is higher in “soluble fraction (log2)” value: -0.819 for the first, 0.03 for the second.

“HMDDDIKNALDVLPEQYRMTVYYADVEGLAYKEIGAIMNTPIGTVMSRIHRGRSQLRVLLAAVAADR” and “HMNLQGIISQKAIVTQTIEPYETGVAKLNGEEWTAMSKDETRIEAGKLVEVVAIEGVKLIVKEVS” are within 0.2 log units of each other in “soluble fraction (log2)” value: -0.0377 for the first, -0.0794 for the second.

First: HMFHDPTMEETLINLKGITNEVLSLLSSSKIKKLEDLAEMSVPELRDIVENISDEEASALIMEARKPWF
Second: HMIDYTDTSAVKDSAAVAGRVREMINEGVPIADVNAFIRSASENGLISDDSARRLRYMNDSR
The “soluble fraction (log2)” value of the first is lower: -0.446 for the first, 0.0307 for the second.

Compared with “HMQAPHLALSPREFQVLQGLLAGDALDIIAERLHLSAKTVSNHQTLIRQKLGVGNAVELLRYAQLHRL”, “HMSRGTRIDPNWQPSPEDRALARAEGFSDPEIDREALQFRDYWLGASGSNAVKLDWSATWRNWVRRAATNF” is higher in “soluble fraction (log2)” value: -2.15 for the first, 0.0774 for the second.

First: HMIHMNMGQKINQLRLQKGFTLEELGNLVGVGKSTVRKWENGMIANMKRDKILLVAEALDTSPAYLMGWD
Second: HMKTTKDSVFEYIQKELMTNEEYKQGINTNVIAQHFGLQRSNISTILNELVKEDRLEKTNTRPVLYFLPQ
The “soluble fraction (log2)” value of the first is lower: -1.54 for the first, -0.0929 for the second.

Going from “HMKKDDLKQINGIGTTIEKKLNEIDIYNFYQISNLSKEDIETISEKIKTFPGKIERDNWVGQAQELL” to “HMKNKFYEEFSDYIFKHTGIHYAEANYYQLDARINKLMKFLETSDENDVLKAIQGGAVKDQRVHQMIVDLA”, the “soluble fraction (log2)” value falls from 0.0191 to -1.7.

First: HMNSLTVPDITNRTLAEASQVLLDMGLTPIPDAVAKDGVGDDVVYAQSPPPNVGAREGDVVTITYNPA
Second: HMNSFKIYPNPSSREVVRFNQAQDVKVYDTLGKLILSAKNTSAIDTKSFNTGIYFIKTANGLTKKLIV
The “soluble fraction (log2)” value of the first is higher: 0.156 for the first, -0.695 for the second.

“HMSAPEGWMNRGDLRDNFRIQYPVTDRIIASYRESHPEWFGTYLSKTSKSLEYFHPDLVAKVREAAN” and “HMKQVEVESVIGKSEEAANSILTKAGLKVNIGYKEDSSKPTDTVLSQDPAPGEKVDEGTTVTIVVNNYKKP” are within 0.2 log units of each other in “soluble fraction (log2)” value: -0.101 for the first, 0.0614 for the second.

Going from “HMPVFSLTPRELEILEWMSTPNTYRQIAAQLSVSEETVRSHAKNILEKMRQPNRAQAVLAAVKMGLIKL” to “HMNIDEIIGKKAVVIESIDNLQGTGKVRYQGMEWTARAEEENDRIEKDAEVEIIAVKGVKLIVKMK”, the “soluble fraction (log2)” value rises from -0.819 to -0.13.

“HMRAERVQITDPYIELHTGPGRGFPIFFVAPREQWISIELRHTDWFKVRAVGGQVGWVQRKQLEST” and “HMVVNERIKKLRRSLDLTQQEFADRIGVKRNTIANYEIGRNEPIDSVLELIVREFGVSKQWLLDGTGEMF” are within 0.2 log units of each other in “soluble fraction (log2)” value: -0.455 for the first, -0.55 for the second.

Going from “HMRVGADLTQRERELLALMAQGMSNQEIAKRLEIAVPTVKFHITNILDKLQVGNRTEAVIAALEHKLVP” to “HMTDWNTVEKETLSAIQKVLSGQASWIDLSPADHSIRHMQHEMVQQAGLISQSYGKEPMRRIRIYQNP”, the “soluble fraction (log2)” value rises from -0.58 to 0.117.

Compared with “HMSENDTILAKFVSVMGNKNLELVIFPDIAYLKGQVSNPEDKTKAETVAQSLLGGKPLVSLIEFE”, “HMSVNEKVRLFRELNQWSQEEMAERMNMSVAGYAKIERGETNISLHKLKQIASVLQIDLLDLVS” is lower in “soluble fraction (log2)” value: 0.218 for the first, -0.32 for the second.

First: HMGKVTILSNPVKDALVIMGLHNAETIDVRLFDNTGRLVMQGSQSRMDISSLSPGLYILQVNGKILKVIK
Second: HMTTIKLTQEDVEKIKSLPKRTFLIGNLQQTGLYDEKTRRFYYLDANGEWNGRLAIINTPPPPPPPP
The “soluble fraction (log2)” value of the first is lower: -2.21 for the first, 0.199 for the second.

Going from “HMFIMQTVALGSEGPDVRALQSILNRIGYNAGTVDGIFGSRTRQAVIAFQRNNGLAADGVAGPATWG” to “HMSVPRVWTDIQGRRVKGDFEGLRGDLVVLRVGGKSYAFPLVRLIASDQAYARSLVAGNPSK”, the “soluble fraction (log2)” value falls from 0.122 to -0.499.

First: HMYAGTWTTESGQWKYRQDDGTYAKGWLQDTDGRWYYFDANGRMLSNTATPDGYQVGEDGAWVNH
Second: HMYKDVVVPNTVGDSEEKAYQTLSALGLVVNITYDEDASKSDRVVTSQNPTNKTIKEGESVNIVVNKQP
The “soluble fraction (log2)” value of the first is lower: -0.196 for the first, 0.0711 for the second.

Compared with “HMPLTKKLETLFSLFPKYEKELKKKGVTRIHVWANYKEEYPDGIGRSQFIHYYSFWKKQVSP”, “HMSSPTAKATGSSVNIRKSASTGAAVLKRVEKGTVLEAVSISDGWVKVKYSGVTGYVSADYVKVSGL” is lower in “soluble fraction (log2)” value: -0.118 for the first, -0.354 for the second.

First: HMTKTKADKIDYAIGDSGTEPPTEDKWTDLAHLPLIKAGQFQWTRRTEYYSDGSTAVSYNIAKSE
Second: HMVEREYRLEVPPEAEGKRLDQFLVNQPVQLSRSQVQHLIQNGLVLVNAKTRRSSYRVHTGDIIEMQVPA
The “soluble fraction (log2)” value of the first is lower: 0.0286 for the first, 0.327 for the second.

Going from “HMSGSIIQQAENLERQFGDTREAILGTLSDPKMSEEILETLMERYNKQHGTNWDKNTWAEEWAKANK” to “HMSKFSDTLVYLRKRAGFSQQELADKMEVSRSLVGMYESGQRMPSYEMLEALADIFNVNIDFLTGH”, the “soluble fraction (log2)” value falls from 0.23 to -0.418.

“HMFMNFAEHLMALRKQRGWSQEELGSQIGVTRQTVSKWEMGQSTPELEKLVELSRLFGMSIDQLVGL” and “HMDYGTATASAILYLEKIDPENPYLLLAKDTITTNPKMSVNFALKGIIESKKGEKEENLNKALEIMSSL” are within 0.2 log units of each other in “soluble fraction (log2)” value: 0.0203 for the first, 0.049 for the second.

Compared with “HMNASITVPDVRNLTVKQASEQLLASGFTPIPYAATKDGVGNDIVYAQDPPPSVLARSGDQITITYNPA”, “HMNTLTKEDIQKAIDVIPIDFKSVVILNLVEGFSYKETAEILEIPIGTVMSRLHRGRKILQKLLWEYSSSK” is lower in “soluble fraction (log2)” value: 0.0329 for the first, -1.32 for the second.

First: HMHVSLADQAYKTIRTNILNLTYPPGTQLTEAKLASDLNMSRSPVRTAIKMLQADGLLVSDYYKSMTVK
Second: HMGKVNTRNRNEGKFYKNGKKKPANWEYRFEAAPVNGKRQQISDAGYPTEKAAYEAGIAAYEKYNSAGSVN
The “soluble fraction (log2)” value of the first is lower: -0.514 for the first, 0.0482 for the second.

“HMKEQLITVYVSGAVARPGLYELPAGIRAQEAVEAAGGFTEAANHEKVNLAKKLKDGSQVNVPALK” and “HMFLSQQDINRANAASVTDMGDIIRRTFERNAAEINGLELSDAEKKDAVKQMATLATTALKTAAGAVNPY” are within 0.2 log units of each other in “soluble fraction (log2)” value: -0.0032 for the first, -0.132 for the second.

“HMAKDDFMSFVKAVWPEFIEGAHHRVIAQKFNDLATGKITRLIVNMPPRHTKSEFASYLLPAW” and “HMWAVDFVLLDKDDQRIGNAVAYRDDRTKGMDEEVYRTVPEEELYASTGIQKQIFNSIYQLMAWKK” are within 0.2 log units of each other in “soluble fraction (log2)” value: 0.107 for the first, 0.0151 for the second.

In the case of “HMETGEDSLRRYFNSLPGSASKREILEDNPTVSQRTTERILQKLQAEGFIEKVGAARATRYRKVKQ”, the “soluble fraction (log2)” value is reported as 0.209.

From the domain aggregation screens of Martell et al. (2025)
